Drawing on paper PMC5233613, this text covers KD for six substances.

“Also recorded” adds a separate entry of the source.

Assay [1] concerns the target LC3B 1-125 (UniProt Q9GZQ8). Description: ITC.
The target of assay [2] is LC3B 1-125 (UniProt Q9GZQ8). In words: ITC. The conditions noted are these: reference: unphosphorylated peptide; sites S13.
Setting [3] is: reference: wild-type LC3B, sites S17.

Take “FUNDC1 10-25 (from UniProt Q8IVP5) LC3B K49A”: the KD result in the assay with LC3B 1-125 [1] (setting [3]) is on record as “weaker; reference 0.59 ± 0.06”.

In the case of “FUNDC1 10-25 (from UniProt Q8IVP5) LC3B K49E”, the KD entry in the assay with LC3B 1-125 [1] (setting [3]) is recorded as “weaker; reference 0.59 ± 0.06”. On to “FUNDC1 10-25 (from UniProt Q8IVP5) LC3B K49R”, for which the KD entry with LC3B 1-125 [1] (setting [3]) was “stronger; reference 0.59 ± 0.06”. Consider “FUNDC1 10-25 (from UniProt Q8IVP5) pS13 peptide”, for which the KD entry with LC3B 1-125 [2] was “weaker; reference 11.44 ± 1.14; also recorded: weaker; reference 5.62 ± 0.25”; with LC3B 1-125 [1] (reference: unphosphorylated peptide, sites S13), “weaker; reference 1.78 ± 0.16”. “FUNDC1 10-25 (from UniProt Q8IVP5) pS17 peptide”: in the assay with LC3B 1-125 [1] (reference: unphosphorylated peptide, sites S17), the KD result is recorded as “stronger; reference 1.78 ± 0.16”. As for “FUNDC1 10-25 (from UniProt Q8IVP5) pY18 peptide”, the KD result with LC3B 1-125 [1] (reference: unphosphorylated peptide, sites Y18) is given as “weaker; reference 1.78 ± 0.16”.
